Like-named read-outs stand apart in the source and are kept apart here. Each block holds one substance with its values, some of them ahead of it.
How the values were obtained:
[1] = molecular target: thrombin (UniProt P00734); conditions: cited from earlier work
[2] = molecular target: Factor X (Homo sapiens) (UniProt P00742); conditions: cited from earlier work
[3] = molecular target: Factor Xa (Homo sapiens) (UniProt P00742); conditions: cited from earlier work
[4] = molecular target: Factor Xa (FXa) (Homo sapiens) (UniProt P00742); conditions: cited from earlier work
Chain of Factor Xa (FXa) (Homo sapiens) (P00742 41-179, chain 1 of 2): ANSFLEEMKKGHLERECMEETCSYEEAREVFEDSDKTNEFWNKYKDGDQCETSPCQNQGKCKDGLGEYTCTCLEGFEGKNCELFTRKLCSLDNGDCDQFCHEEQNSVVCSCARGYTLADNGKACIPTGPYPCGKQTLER
Chain of Factor Xa (FXa) (Homo sapiens) (P00742 235-488, chain 2 of 2): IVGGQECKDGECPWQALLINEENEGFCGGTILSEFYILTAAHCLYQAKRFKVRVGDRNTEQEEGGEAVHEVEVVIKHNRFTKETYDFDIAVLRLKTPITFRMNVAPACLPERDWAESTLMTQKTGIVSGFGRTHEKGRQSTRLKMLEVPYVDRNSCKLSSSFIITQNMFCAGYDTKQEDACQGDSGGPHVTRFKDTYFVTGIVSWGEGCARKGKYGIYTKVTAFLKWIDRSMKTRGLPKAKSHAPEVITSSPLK

[5] = molecular target: Factor X (FX) (Homo sapiens) (UniProt P00742); conditions: cited from earlier work
Chain of Factor X (FX) (Homo sapiens) (P00742 41-179, chain 1 of 2): as the sequence (P00742 41-179, chain 1 of 2) above
Chain of Factor X (FX) (Homo sapiens) (P00742 183-488, chain 2 of 2): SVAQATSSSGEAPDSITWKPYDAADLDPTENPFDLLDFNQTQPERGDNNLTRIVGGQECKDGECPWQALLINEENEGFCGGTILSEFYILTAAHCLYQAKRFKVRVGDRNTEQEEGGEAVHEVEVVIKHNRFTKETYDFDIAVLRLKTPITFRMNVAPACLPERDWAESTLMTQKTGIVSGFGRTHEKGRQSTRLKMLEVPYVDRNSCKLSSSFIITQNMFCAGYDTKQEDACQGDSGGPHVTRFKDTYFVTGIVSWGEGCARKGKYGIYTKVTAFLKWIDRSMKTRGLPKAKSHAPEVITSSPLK

[6] = molecular target: thrombin (UniProt P00734); conditions: cited from earlier work; remark: listed apart in the source
[7] = molecular target: recombinant Simukunin (rSV-66) (Simulium vittatum) (UniProt B5M0W4); assay: SPR; kinetics: rSimukunin immobilised on a CM5 chip by amine coupling (475.3 RU); FXa 3.1-50 nM or elastase 0.45-3.75 nM injected for 180 s at 30 µl/minute, 25°C; HBS-P (10 mM Hepes pH 7.4, 150 mM NaCl, 0.005% P20); global fit to a 1:1 Langmuir model
Chain of recombinant Simukunin (rSV-66) (Simulium vittatum) (B5M0W4 20-102): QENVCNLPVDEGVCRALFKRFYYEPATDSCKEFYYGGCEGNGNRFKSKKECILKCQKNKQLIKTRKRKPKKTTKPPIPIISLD

Chain of ixolaris (Q964Q0 27-165): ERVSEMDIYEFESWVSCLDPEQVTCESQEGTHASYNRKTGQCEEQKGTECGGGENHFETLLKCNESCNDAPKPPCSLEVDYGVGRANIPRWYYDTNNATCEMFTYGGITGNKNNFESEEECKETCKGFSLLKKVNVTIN
Chain of amblin (Q5VJG2 16-166): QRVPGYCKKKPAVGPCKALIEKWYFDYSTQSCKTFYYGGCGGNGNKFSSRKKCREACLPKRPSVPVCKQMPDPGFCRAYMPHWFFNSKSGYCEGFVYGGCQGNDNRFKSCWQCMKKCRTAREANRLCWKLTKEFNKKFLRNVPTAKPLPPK
Chain of Factor Xa (Homo sapiens) (P00742 235-488): as the sequence (P00742 235-488, chain 2 of 2) above
Chain of Factor X (Homo sapiens) (P00742 41-179): as the sequence (P00742 41-179, chain 1 of 2) above
Chain of ornithodorin (P56409 whole entry): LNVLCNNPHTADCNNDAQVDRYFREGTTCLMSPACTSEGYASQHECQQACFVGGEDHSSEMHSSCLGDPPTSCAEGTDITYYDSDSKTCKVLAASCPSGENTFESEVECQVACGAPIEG

Substance: ornithodorin (from UniProt P56409)
Ki [1]: 0.001 nM

Substance: ixolaris (from UniProt Q964Q0)
Kd [2]: 0.67 nM | Kd [3]: 0.25 nM | Kd [4]: 0.25 nM | Kd [5]: 0.67 nM

Substance: amblin (from UniProt Q5VJG2)
Ki [6]: 20 nM

Kd [7]: 3.07 nM | koff [7]: 0.000303 s⁻¹ | kon [7]: 98700 M⁻¹ s⁻¹
Substance: activated coagulation factor X (FXa), human (enzyme)
